This is an account of results in patent US20220153839A1.

The target of the assay is ROR1 (reagent by which anti-ROR1 recognition of CAR-T cells was read; form not stated). Kind of assay: FACS of EGFR+ transduced T cells.
ROR1 (reagent by which anti-ROR1 recognition of CAR-T cells was read; form not stated), sequence (Q01973 24-403): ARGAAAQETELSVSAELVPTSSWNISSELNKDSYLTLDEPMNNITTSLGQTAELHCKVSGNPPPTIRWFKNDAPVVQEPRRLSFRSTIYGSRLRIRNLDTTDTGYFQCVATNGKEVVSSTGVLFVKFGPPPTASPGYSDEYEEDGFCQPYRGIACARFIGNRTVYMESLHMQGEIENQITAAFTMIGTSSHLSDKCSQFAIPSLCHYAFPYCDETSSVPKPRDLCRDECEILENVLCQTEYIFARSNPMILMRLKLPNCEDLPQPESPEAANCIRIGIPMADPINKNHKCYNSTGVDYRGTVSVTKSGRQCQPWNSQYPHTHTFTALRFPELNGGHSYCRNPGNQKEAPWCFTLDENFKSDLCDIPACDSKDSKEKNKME

B1: XBR1-402 chimeric antigen receptor with short spacer, on CD8+ T cells (protein, part only; not given: scFv linker, spacer, signaling parts, not shown: large carriers)
scFv, part: QEQQKESGGGLFKPTDTLTLTCTASGFDISSYYMSWVRQAPGNGLEWIGAIGISGNAYYASWAKSRSTITRNTNLNTVTLKMTSLTAADTATYFCARDHPTYGMDLWGPGTLVTVSSSYELTQLPSVSVSLGQTARITCEGNNIGSKAVHWYQQKPGLAPGLLIYDDDERPSGVPDRFSGSNSGDTATLTISGAQAGDEADYYCQVWDSSAYVFGGGTQLTVTG
Molecule B1 had a percent of CAR-T cells with anti-ROR1 recognition of over 90%.

B2: XBR1-402 chimeric antigen receptor with long spacer, on CD8+ T cells (protein, part only; not given: scFv linker, spacer, signaling parts, not shown: large carriers)
scFv, part: B1 scFv, part
In turn, B2 came in with a percent of CAR-T cells with anti-ROR1 recognition of over 90%.
